The nanobody polyreactivity screen of Harvey et al. (2022)

Assay: yeast display, Sf9 membrane polyspecificity reagent, FACS + sequencing; frameworks hold sequencing errors
Outline: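 Galactose-induced (36–48 hours) yeast carrying a synthetic nanobody display library were exposed to 10% biotinylated, detergent-solubilized Sf9 membrane reagent at 4 °C for 1 hour. FACS followed streptavidin microbead enrichment, using low and high (top ~1%) gates for expression (anti-HA) and reagent binding (streptavidin). Colony PCR, MiSeq 2 × 250 sequencing and CDR-length filtering followed. Labels for polyreactivity reflect the gate of origin.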

Sequence	polyreactivity (PSR sort gate)
QVQLVESGGGLVQAGGSLRLSCAASGSIFGGNDMGWSRQAPGKERAWVAAITATSGSTYYADSVKGRFTISRDNAKNTVYLQMNSLKPEDTAVYYCAAKPVGTYSRPHDYWGQGTQVTVSS	low polyreactivity
QVQLVESGGGLVQAGGSLRLSCAASGSIFGGNTMGWYRKAPGKERELVAAITNGGRTNYADSVKGRFTISRDNAKNTVYLQMNSLKPEDTAVYYCNAVTYSRRYAYYYWGQGTQVTVSS	high polyreactivity
QVQLVESGGGLVQAGGSLRLSCAASGSIFGGNTMGWYRQAPGKERELVAAISRSGGSTYYADSVKGRFTISRDNAKNTVYLQMNSLKPEDTAVYYCNRKQAGHAQGYDYWGQGTQVTVSS	high polyreactivity
QVQLVESGGGLVQAGGSLRLSCAASGSIFGGSGMGWYRQAPGKERELVAAITSGSSTYYADSVKGRFTISRDNAKNTVYLQMNSLKPEDTAVYYCAARPYPHSAYEGDYWGRGTQVTVSS	low polyreactivity
QVQLVESGGGLVQAGGSLRLSCAASGSIFGGYALGWYRQAPGKERELVAAISKTGGTTYYADSVKGRFTISRDNALNTVYLQMNSLKPEDTAVYYWNAPKRYYGSAYGYGYWGQGTQVTVSS	high polyreactivity
QVQLVESGGGLVQAGGSLRLSCAASGSIFGGYALGWYRQAPGNERELVAAITSSGGRTYYADSVKGRFTISRDNAKNTVYLQMNSLKPEDTAVYYCAARYTRWRYIYKDYDYWGQGTQVTVSS	high polyreactivity
QVQLVESGGGLVQAGGSLRLSCAASGSIFGGYAMGWYRQAPGKERELVAAISSSGGSTYYADSVKGRFTISRDNAKNTVYLQMHSLKPEDTAVYYCASSYHGRSYHLNYWGQGTQVTVSS	high polyreactivity
QVQLVESGGGLVQAGGSLRLSCAASGSIFGGYAMGWYRQAPGKERELVAAISYRGASTYYADSVKGRFTISRDNAKNTVYLQMNSLKPEDTAVYYCAARHDKRRQYYVGQSAFDYWGQGTQVTVSS	low polyreactivity
QVQLVESGGGLVQAGGSLRLSCAASGSIFGGYAMGWYRQAPGKERELVAAITSSGGRTYYADSVKGRFTISRDNAKNTVDLQMNSLKPEDTAVYYCAASPNYYYYYPMYYWGQGTQVTVSS	high polyreactivity
QVQLVESGGGLVQAGGSLRLSCAASGSIFGGYPMGWYRQAPGKERELVAAITYSAGNTYYADSVKGRFTISRDNAKNTFYVQMNSLKPEDTAVYYCNAVTKHRAITNMDYWGQGTQVTVSS	high polyreactivity
QVQLVESGGGLVQAGGSLRLSCAASGSIFGGYSMGWYRQAPGKEMELVARISSGGSTYYADSVKGRFTISRDNAKNTVYLQMNSLKQEDTAVYYCNAKTYTWWGLYEYWGQGTQVTVSS	high polyreactivity
QVQLVESGGGLVQAGGSLRLSCAASGSIFGGYTMGWYRQAPGKERELVAAISRRGGNTYYADSVKGRFTISRDNAKNTVYLQMNSMKPEDSAVYYCAVRWPSARIPVKLDYWGQGTQVNVSS	high polyreactivity
QVQLVESGGGLVQAGGSLRLSCAASGSIFGGYVMGWFRQAPGKERELVAAITSNGGITYADSVKGRFTISRDNAKNTVYLQMHSLKPEDTAVYYCAADSWFYGGEYKFGYYWGQGTQVTVSS	low polyreactivity
QVQLVESGGGLVQAGGSLRLSCAASGSIFGHYAMGWYRPAPGKERELVAGISSSSGGRTYYADSVKGRFTISRDNAKNTVYLQMNSLKPEDTAVDYCAAVYSVQVSRRAKYYYWGQGTQVTVSS	high polyreactivity
QVQLVESGGGLVQAGGSLRLSCAASGSIFGINAMGWYRQAPGKERELVAAISWRGDSTSYADSVKGRFTISRDNAKNTVYLQMNSLKPEDTAVYYCAKGGTRFYVVGETYYYWGQGTQVTVSS	low polyreactivity
QVQLVESGGGLVQAGGSLRLSCAASGSIFGINVMGWYRQAPGKERELVAAISRSGSSTYYADSVKGRFTISRDNAKNTVYLQMNSLKPEDTAVYYCNADRSTWTVLVWEYDYWGQGTQVTVSS	low polyreactivity
QVQLVESGGGLVQAGGSLRLSCAASGSIFGIYAMGWYRQAPGKERELVAAIRRGGSTYYADSVKGRFTISRDNAKNTVYLQMNSLKPEDTAVYYCAARKYRLWGKGVDYDYWGQGTQVTVSS	high polyreactivity
QVQLVESGGGLVQAGGSLRLSCAASGSIFGIYAMGWYRQAPGKERELVAAIRRGGSTYYADSVKGRFTISRDNAKNTVYLQMNSLKPEDTAVYYCNTDYHRLLRSRPKYYYWGQGTQVTVSS	high polyreactivity
QVQLVESGGGLVQAGGSLRLSCAASGSIFGIYAMGWYRQAPGKERELVADITYSGGSTYYADSVKGRFTISRDNAKNTVYLQMNSLKPEDTAVYYCAADWVYVNAWTGGWTYEYWGQGTQVTVSS	high polyreactivity
QVQLVESGGGLVQAGGSLRLSCAASGSIFGKNAMGWYRQAPGKERELVAAISATGSRTYYADSVKGRFTISRDNAKNTVYLQMISLKPEETAVYSCTKLVRGVRPEEYDYGGQGTQVTVSS	high polyreactivity
QVQLVESGGGLVQAGGSLRLSCAASGSIFGKYAMGWYRQAPGKERELVAAISERTGRTYYADSVKGRFTISRDNAKNTVYLQMNSLKPEDTAVYYCNVVPLDSGWSTYGYDYWGQGTQVTVSS	high polyreactivity
QVQLVESGGGLVQAGGSLRLSCAASGSIFGKYTMGWYRQAPGKEREFVAAITSVGSTNYADSVKVRFTISRDNAKNTVYLQMNSLKPVDTAVYYCAADTIGYHYWYDYWGQGTQVTVSS	low polyreactivity

Sequence	polyreactivity (PSR sort gate)
QVQLVESGGGLVQAGGSLRLSCAASGSIFGKYVMGWYRQAPGKERELVAALTFGGGSTYYADSVKGRFTISRDNAKNTVSLQMNTLKPEETAVYYCAAKSYDDRLYRRPRDYWGQGTQVTLSS	high polyreactivity
QVQLVESGGGLVQAGGSLRLSCAASGSIFGLNALGWSRQAPGKERELVAGITWSGGSSTYYADSVKGRFTISRDYAKNTVYLQMNSLKPEDTAVYNCAARRVFIPYYVRFYYWGQGTQVTVSS	high polyreactivity
QVQLVESGGGLVQAGGSLRLSCAASGSIFGLNAMGWYRQAPGKEREFVAAIDKNGAGTYYADSVKGRFTISRDNAKNTVYLQMNSLKPEDTAVYYCAAEYRSYGWYGYVVEYDYWGLGTQVTVSS	high polyreactivity
QVQLVESGGGLVQAGGSLRLSCAASGSIFGLNAMGWYRQAPGKERELVAAIDIIGGSTYYADSVKGRFTISRDNAKNTVYLQMNSLKPEDTAVYYCAAEADFWRFVEYDYWGQGSQVTVSS	low polyreactivity
QVQLVESGGGLVQAGGSLRLSCAASGSIFGLNAMGWYRQAPGKERELVAAINSDGDTYYADSVKGRFTISRDNAKNTVCLQMNSLKPEDTAVYYCAALQRRDHNGDYWGQGTQVTVSS	low polyreactivity
QVQLVESGGGLVQAGGSLRLSCAASGSIFGLYAMGWYRQAPGKERELVAAISSRGSSTYYADSVKGRFTISRDNAKNTVYIQMNSLKPEDTAVYYCNAYPFSRSVQLRDYWGQGTQVTVSS	low polyreactivity
QVQLVESGGGLVQAGGSLRLSCAASGSIFGLYAMGWYRQAPGKERELVAAITASDGSTYYADSVKGRFTISRDNAKNTVYLQMNSLKPEDTAVYYCNADAYSGYFLFDYWGQGTQVTVSS	low polyreactivity
QVQLVESGGGLVQAGGSLRLSCAASGSIFGLYGMGWYRQAPGKERELVAAISSGGTTNYADSVKGRFTISRDNAKNTVYLQMNSLKPEDTAVYYCAARYSRGAYIYYGWYGYGYWGQGTQVTVSS	low polyreactivity
QVQLVESGGGLVQAGGSLRLSCAASGSIFGNKAMGWYRQAPGKERELVAASSNDGDNSYYADSVKGRFTISRDKAKNTVYLQMNSLKPEDTAVYYCAADYVGVTSVRYDYWGQGTEVTVSS	low polyreactivity
QVQLVESGGGLVQAGGSLRLSCAASGSIFGNNAMGWYRQAPGKERELVAAISGSGGTRYADSVKGRFTISRDNAKNTVYFQLNSLKPEDTAVYYCSADDSWGGFHSPKAIGYDYWGQGTQVTVSS	low polyreactivity
QVQLVESGGGLVQAGGSLRLSCAASGSIFGNYVMGWYRQAPGKERELVAAITSDGSTYYADSVKGRFTISRDNAKNTVYLQMNSLKPEDTAVYYCNAVYEGLQSRWYKGGLYSFDYWGQGTQVTVSS	low polyreactivity
QVQLVESGGGLVQAGGSLRLSCAASGSIFGPNPMGWYRQAPGKERELVAAISWTGGRTYYADSVKGRFTISRDNAKNTVYLQMNSLKPEDTAVYYCAAARYLSGGYEKYDYWGQGTQVTVST	low polyreactivity
QVQLVESGGGLVQAGGSLRLSCAASGSIFGPYAMGWYRQAPGKERELVAAISRGSRTNYADSVKGRFTISRDNAKNTVYLQMNSLKPEDTAVYYCAARYVWRSTHHRGSTYDYWGQGTQVTVSS	high polyreactivity
QVQLVESGGGLVQAGGSLRLSCAASGSIFGPYAMGWYRQAPGKERELVATINRGVTTYYADSVKGRFTISRDNAKNTVYLQMNSLKPEDTAVYYCAARTYAKRPGYYWGQGTQVTVSS	high polyreactivity
QVQLVESGGGLVQAGGSLRLSCAASGSIFGPYAMGWYRQAPGKEREVVAAINSGGSTNYADSVKGRFTISRDNAKNTVYLQMNSLKPEDTAVYYCNAADERSQGWVGYDHWGQCTQVTVSS	low polyreactivity
QVQLVESGGGLVQAGGSLRLSCAASGSIFGQYAMGWYRQAPGKEREYVAAISWRGTSTYYADSVKGRFTISRDNAKNTVYLQMNSLKPEDTAVYYCAGRYVKPSRYKYNYWGQGTQVTVSS	high polyreactivity
QVQLVESGGGLVQAGGSLRLSCAASGSIFGRNAMGWYRQAPGKEREFVAAISQRGGRTYYADSVKGRFTISRDNAKNTVYLQMNSLKPEDTAVYYCAATYTRVPNRFYYWGQGTQVTVSS	high polyreactivity
QVQLVESGGGLVQAGGSLRLSCAASGSIFGRNAMGWYRQAPGKERELVAAISSRSDRTYYADSVKGRFTISRDNAKNTVYLQMNSLKPEDTAVYYCAARYGSSQNGYKSDYWGQGTQVTLSS	high polyreactivity
QVQLVESGGGLVQAGGSLRLSCAASGSIFGRNAMGWYRQAPGKERELVARISSRGGSTYYADSVKGRFTISRDNAKNTVYLQLISLKREDTALYYCAAEGGDRYALYTFYTWGQGTQVTVSS	high polyreactivity
QVQLVESGGGLVQAGGSLRLSCAASGSIFGRNAMGWYRQAPGKERELVAVISKRSGNTYYADSVKGRFTISRDNAKNTVYLQMNSLKPEDTAVYYCNAVDQKLLRYDYGGQGTQVTVSS	high polyreactivity
QVQLVESGGGLVQAGGSLRLSCAASGSIFGRNAMGWYRQAPGREREFVATITSRGGRTYYADSVKGRFTISRDNAKNTVYLQMNSLKPEDTAVYYCAADTYISTLKKYRLGDYWGQGTQVTVSS	low polyreactivity
